Assay results: IntAct's records for PubMed 25517094

What follows are substances tested against SH3GL1, Q99961-1.
SH3GL1, Q99961-1, sequence (Q99961 whole entry): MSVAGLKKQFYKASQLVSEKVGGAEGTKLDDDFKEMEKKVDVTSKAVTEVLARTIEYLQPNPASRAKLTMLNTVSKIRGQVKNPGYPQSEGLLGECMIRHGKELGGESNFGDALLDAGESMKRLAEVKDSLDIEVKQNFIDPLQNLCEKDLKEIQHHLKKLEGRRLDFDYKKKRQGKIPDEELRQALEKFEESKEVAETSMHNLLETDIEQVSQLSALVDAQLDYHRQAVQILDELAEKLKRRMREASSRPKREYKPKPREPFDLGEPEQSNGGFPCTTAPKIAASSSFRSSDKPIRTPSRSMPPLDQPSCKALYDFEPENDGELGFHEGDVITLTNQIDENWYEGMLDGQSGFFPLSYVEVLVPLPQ

Beta-1 adrenergic receptor (Mus musculus), P34971 R298E;R299E, sequence (P34971 whole entry R298E/R299E): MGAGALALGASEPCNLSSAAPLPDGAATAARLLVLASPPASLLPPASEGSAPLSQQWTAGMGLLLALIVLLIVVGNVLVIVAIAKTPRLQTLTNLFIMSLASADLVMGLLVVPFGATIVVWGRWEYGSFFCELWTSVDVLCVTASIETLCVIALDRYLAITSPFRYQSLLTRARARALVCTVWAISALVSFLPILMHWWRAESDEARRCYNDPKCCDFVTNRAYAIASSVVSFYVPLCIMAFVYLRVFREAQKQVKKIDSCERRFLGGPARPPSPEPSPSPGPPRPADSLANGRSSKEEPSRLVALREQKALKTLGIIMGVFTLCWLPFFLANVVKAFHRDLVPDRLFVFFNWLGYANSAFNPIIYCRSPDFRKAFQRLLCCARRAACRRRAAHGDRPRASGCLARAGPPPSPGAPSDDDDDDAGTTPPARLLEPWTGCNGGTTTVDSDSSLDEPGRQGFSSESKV
Beta-1 adrenergic receptor (Mus musculus), P34971 R271A, sequence (P34971 whole entry R271A): as the sequence (P34971 whole entry R298E/R299E) above, with R271A, E298R, E299R counted along it
Beta-1 adrenergic receptor (Mus musculus), P34971 P272A;P273A, sequence (P34971 whole entry P272A/P273A): as the sequence (P34971 whole entry R298E/R299E) above, with P272A, P273A, E298R, E299R counted along it
Beta-1 adrenergic receptor (Mus musculus), P34971 P272A;P273A;P283A;P284A, sequence (P34971 whole entry P272A/P273A/P283A/P284A): as the sequence (P34971 whole entry R298E/R299E) above, with P272A, P273A, P283A, P284A, E298R, E299R counted along it

| effect of a mutation on the interaction | Substance |
| --- | --- |
| decreasing interaction strength | Beta-1 adrenergic receptor (Mus musculus), P34971 P272A;P273A |
| disrupting interaction strength | Beta-1 adrenergic receptor (Mus musculus), P34971 P272A;P273A;P283A;P284A |
| decreasing interaction strength | Beta-1 adrenergic receptor (Mus musculus), P34971 R271A |
| decreasing interaction strength | Beta-1 adrenergic receptor (Mus musculus), P34971 R298E;R299E |
